# Assay results reported in paper doi:10.1101/2022.04.26.489529 (bioRxiv, 2022).
# B1: 58G6 (antibody, V domains shown)
# VH: QMQLVQSGPEVKKPGTSVKVSCKASGFTFSSSAVQWVRQARGQHLEWIGWIVVGSGNTNYAQKFQERVTLTRDMSTRTAYMELSSLRSEDTAVYYCAAPNCNSTTCHDGFDIWGQGTVVTVSS
# VL: EIVLTQSPGTLSLSPGERATLSCRASQSVRSSYLGWYQQKPGQAPRLLIYGASSRATGIPDRFSGSGSGTDFTLTISRLESEDFAVYYCQQYDNSPWTFGQGTKVEIK
# B2: 58G6 Fab (Fab, V domains shown)
# VH: B1 VH
# VL: B1 VL
# Key:
# [1] = molecular target: S protein of the SARS-CoV-2 strain D614G (SARS-CoV-2, D614G, UniProt A0A6H1PJZ3, D614G); experiment: ELISA
# [2] = molecular target: stabilized Omicron S ECD HexaPro (SARS-CoV-2 Omicron BA.1, N440K | S477N | T478K | E484A | Q493R); experiment: cryo-EM structure
binder,measurement,setting,value
B1,binding result,[1],binds
B2,stoichiometry N,[2],1 Fab per trimer
